Results published in patent publication US20140087995A1 (published 2014).
Numbered stars: 1 amine (or outer) side, 2 acyl side, 3 side chain; on linkers, the order of the positions; unused ones are H or OH. Bridge positions count the residues as written; N and C are the ends. Side chains are listed from the residue outwards. Ends that are not written are not given here. * marks the point of attachment. C20 diacid = O=C(O)CCCCCCCCCCCCCCCCCCC(=O)*; γGlu = O=C(O)[C@H](CCC(=O)[*:2])N[*:1]; AEEA = NCCOCCOCC(=O)O

B1: N^ε1-[2-[2-[2-[[(4S)-4-carboxy-4-(19-carboxynonadecanoylamino)butanoyl]amino]ethoxy]ethoxy]acetyl]-[Ala14,Arg17,Pro21,Pro27,Pro31]-h-amylin (peptide)
peptide: K([AEEA-γGlu-C20 diacid])CNTATCATQRLAAFLRHSSPNFGAIPSSTPVGSNTY-NH2
modifications: disulfide 2-7; N-terminus assumed
SMILES: CC[C@H](C)[C@H](NC(=O)[C@H](C)NC(=O)CNC(=O)[C@H](Cc1ccccc1)NC(=O)[C@H](CC(N)=O)NC(=O)[C@@H]1CCCN1C(=O)[C@H](CO)NC(=O)[C@H](CO)NC(=O)[C@H](Cc1c[nH]cn1)NC(=O)[C@H](CCCNC(=N)N)NC(=O)[C@H](CC(C)C)NC(=O)[C@H](Cc1ccccc1)NC(=O)[C@H](C)NC(=O)[C@H](C)NC(=O)[C@H](CC(C)C)NC(=O)[C@H](CCCNC(=N)N)NC(=O)[C@H](CCC(N)=O)NC(=O)[C@@H](NC(=O)[C@H](C)NC(=O)[C@@H]1CSSC[C@H](NC(=O)[C@@H](N)CCCCNC(=O)COCCOCCNC(=O)CC[C@H](NC(=O)CCCCCCCCCCCCCCCCCCC(=O)O)C(=O)O)C(=O)N[C@@H](CC(N)=O)C(=O)N[C@@H]([C@@H](C)O)C(=O)N[C@@H](C)C(=O)N[C@@H]([C@@H](C)O)C(=O)N1)[C@@H](C)O)C(=O)N1CCC[C@H]1C(=O)N[C@@H](CO)C(=O)N[C@@H](CO)C(=O)N[C@H](C(=O)N1CCC[C@H]1C(=O)N[C@H](C(=O)NCC(=O)N[C@@H](CO)C(=O)N[C@@H](CC(N)=O)C(=O)N[C@H](C(=O)N[C@@H](Cc1ccc(O)cc1)C(N)=O)[C@@H](C)O)C(C)C)[C@@H](C)O
notes: also called 14A, 17R, 21P, 27P, 31P
B2: N^ε1-[2-[2-[2-[[(4S)-4-carboxy-4-(19-carboxynonadecanoylamino)butanoyl]amino]ethoxy]ethoxy]acetyl]-[Arg14,Arg17,Pro21,Pro27,Pro31]-h-amylin (peptide)
peptide: K([AEEA-γGlu-C20 diacid])CNTATCATQRLARFLRHSSPNFGAIPSSTPVGSNTY-NH2
modifications: disulfide 2-7; N-terminus assumed
SMILES: CC[C@H](C)[C@H](NC(=O)[C@H](C)NC(=O)CNC(=O)[C@H](Cc1ccccc1)NC(=O)[C@H](CC(N)=O)NC(=O)[C@@H]1CCCN1C(=O)[C@H](CO)NC(=O)[C@H](CO)NC(=O)[C@H](Cc1c[nH]cn1)NC(=O)[C@H](CCCNC(=N)N)NC(=O)[C@H](CC(C)C)NC(=O)[C@H](Cc1ccccc1)NC(=O)[C@H](CCCNC(=N)N)NC(=O)[C@H](C)NC(=O)[C@H](CC(C)C)NC(=O)[C@H](CCCNC(=N)N)NC(=O)[C@H](CCC(N)=O)NC(=O)[C@@H](NC(=O)[C@H](C)NC(=O)[C@@H]1CSSC[C@H](NC(=O)[C@@H](N)CCCCNC(=O)COCCOCCNC(=O)CC[C@H](NC(=O)CCCCCCCCCCCCCCCCCCC(=O)O)C(=O)O)C(=O)N[C@@H](CC(N)=O)C(=O)N[C@@H]([C@@H](C)O)C(=O)N[C@@H](C)C(=O)N[C@@H]([C@@H](C)O)C(=O)N1)[C@@H](C)O)C(=O)N1CCC[C@H]1C(=O)N[C@@H](CO)C(=O)N[C@@H](CO)C(=O)N[C@H](C(=O)N1CCC[C@H]1C(=O)N[C@H](C(=O)NCC(=O)N[C@@H](CO)C(=O)N[C@@H](CC(N)=O)C(=O)N[C@H](C(=O)N[C@@H](Cc1ccc(O)cc1)C(N)=O)[C@@H](C)O)C(C)C)[C@@H](C)O
notes: also called 14R, 17R, 21P, 27P, 31P
B3: N^ε1-[2-[2-[2-[[(4S)-4-carboxy-4-(19-carboxynonadecanoylamino)butanoyl]amino]ethoxy]ethoxy]acetyl]-[Arg14,Arg17,Pro21,Pro27]-h-amylin (peptide)
peptide: K([AEEA-γGlu-C20 diacid])CNTATCATQRLARFLRHSSPNFGAIPSSTNVGSNTY-NH2
modifications: disulfide 2-7; N-terminus assumed
SMILES: CC[C@H](C)[C@H](NC(=O)[C@H](C)NC(=O)CNC(=O)[C@H](Cc1ccccc1)NC(=O)[C@H](CC(N)=O)NC(=O)[C@@H]1CCCN1C(=O)[C@H](CO)NC(=O)[C@H](CO)NC(=O)[C@H](Cc1c[nH]cn1)NC(=O)[C@H](CCCNC(=N)N)NC(=O)[C@H](CC(C)C)NC(=O)[C@H](Cc1ccccc1)NC(=O)[C@H](CCCNC(=N)N)NC(=O)[C@H](C)NC(=O)[C@H](CC(C)C)NC(=O)[C@H](CCCNC(=N)N)NC(=O)[C@H](CCC(N)=O)NC(=O)[C@@H](NC(=O)[C@H](C)NC(=O)[C@@H]1CSSC[C@H](NC(=O)[C@@H](N)CCCCNC(=O)COCCOCCNC(=O)CC[C@H](NC(=O)CCCCCCCCCCCCCCCCCCC(=O)O)C(=O)O)C(=O)N[C@@H](CC(N)=O)C(=O)N[C@@H]([C@@H](C)O)C(=O)N[C@@H](C)C(=O)N[C@@H]([C@@H](C)O)C(=O)N1)[C@@H](C)O)C(=O)N1CCC[C@H]1C(=O)N[C@@H](CO)C(=O)N[C@@H](CO)C(=O)N[C@H](C(=O)N[C@@H](CC(N)=O)C(=O)N[C@H](C(=O)NCC(=O)N[C@@H](CO)C(=O)N[C@@H](CC(N)=O)C(=O)N[C@H](C(=O)N[C@@H](Cc1ccc(O)cc1)C(N)=O)[C@@H](C)O)C(C)C)[C@@H](C)O
notes: also called 14R, 17R, 21P, 27P
B4: N^ε1-[2-[2-[2-[[(4S)-4-carboxy-4-(19-carboxynonadecanoylamino)butanoyl]amino]ethoxy]ethoxy]acetyl]-[Arg17,Pro21,Pro27,Arg34]-h-amylin (peptide)
peptide: K([AEEA-γGlu-C20 diacid])CNTATCATQRLANFLRHSSPNFGAIPSSTNVGRNTY-NH2
modifications: disulfide 2-7; N-terminus assumed
SMILES: CC[C@H](C)[C@H](NC(=O)[C@H](C)NC(=O)CNC(=O)[C@H](Cc1ccccc1)NC(=O)[C@H](CC(N)=O)NC(=O)[C@@H]1CCCN1C(=O)[C@H](CO)NC(=O)[C@H](CO)NC(=O)[C@H](Cc1c[nH]cn1)NC(=O)[C@H](CCCNC(=N)N)NC(=O)[C@H](CC(C)C)NC(=O)[C@H](Cc1ccccc1)NC(=O)[C@H](CC(N)=O)NC(=O)[C@H](C)NC(=O)[C@H](CC(C)C)NC(=O)[C@H](CCCNC(=N)N)NC(=O)[C@H](CCC(N)=O)NC(=O)[C@@H](NC(=O)[C@H](C)NC(=O)[C@@H]1CSSC[C@H](NC(=O)[C@@H](N)CCCCNC(=O)COCCOCCNC(=O)CC[C@H](NC(=O)CCCCCCCCCCCCCCCCCCC(=O)O)C(=O)O)C(=O)N[C@@H](CC(N)=O)C(=O)N[C@@H]([C@@H](C)O)C(=O)N[C@@H](C)C(=O)N[C@@H]([C@@H](C)O)C(=O)N1)[C@@H](C)O)C(=O)N1CCC[C@H]1C(=O)N[C@@H](CO)C(=O)N[C@@H](CO)C(=O)N[C@H](C(=O)N[C@@H](CC(N)=O)C(=O)N[C@H](C(=O)NCC(=O)N[C@@H](CCCNC(=N)N)C(=O)N[C@@H](CC(N)=O)C(=O)N[C@H](C(=O)N[C@@H](Cc1ccc(O)cc1)C(N)=O)[C@@H](C)O)C(C)C)[C@@H](C)O
notes: also called 17R, 21P, 27P, 34R
B5: N^ε1-[2-[2-[2-[[(4S)-4-carboxy-4-(19-carboxynonadecanoylamino)butanoyl]amino]ethoxy]ethoxy]acetyl]-[Arg17,Pro21,Pro27,Arg35]-h-amylin (peptide)
peptide: K([AEEA-γGlu-C20 diacid])CNTATCATQRLANFLRHSSPNFGAIPSSTNVGSRTY-NH2
modifications: disulfide 2-7; N-terminus assumed
SMILES: CC[C@H](C)[C@H](NC(=O)[C@H](C)NC(=O)CNC(=O)[C@H](Cc1ccccc1)NC(=O)[C@H](CC(N)=O)NC(=O)[C@@H]1CCCN1C(=O)[C@H](CO)NC(=O)[C@H](CO)NC(=O)[C@H](Cc1c[nH]cn1)NC(=O)[C@H](CCCNC(=N)N)NC(=O)[C@H](CC(C)C)NC(=O)[C@H](Cc1ccccc1)NC(=O)[C@H](CC(N)=O)NC(=O)[C@H](C)NC(=O)[C@H](CC(C)C)NC(=O)[C@H](CCCNC(=N)N)NC(=O)[C@H](CCC(N)=O)NC(=O)[C@@H](NC(=O)[C@H](C)NC(=O)[C@@H]1CSSC[C@H](NC(=O)[C@@H](N)CCCCNC(=O)COCCOCCNC(=O)CC[C@H](NC(=O)CCCCCCCCCCCCCCCCCCC(=O)O)C(=O)O)C(=O)N[C@@H](CC(N)=O)C(=O)N[C@@H]([C@@H](C)O)C(=O)N[C@@H](C)C(=O)N[C@@H]([C@@H](C)O)C(=O)N1)[C@@H](C)O)C(=O)N1CCC[C@H]1C(=O)N[C@@H](CO)C(=O)N[C@@H](CO)C(=O)N[C@H](C(=O)N[C@@H](CC(N)=O)C(=O)N[C@H](C(=O)NCC(=O)N[C@@H](CO)C(=O)N[C@@H](CCCNC(=N)N)C(=O)N[C@H](C(=O)N[C@@H](Cc1ccc(O)cc1)C(N)=O)[C@@H](C)O)C(C)C)[C@@H](C)O
notes: also called 17R, 21P, 27P, 35R
B6: N^ε1-[2-[2-[2-[[(4S)-4-carboxy-4-(19-carboxynonadecanoylamino)butanoyl]amino]ethoxy]ethoxy]acetyl]-[Arg17,Pro21,Pro27,Glu35]-h-amylin (peptide)
peptide: K([AEEA-γGlu-C20 diacid])CNTATCATQRLANFLRHSSPNFGAIPSSTNVGSETY-NH2
modifications: disulfide 2-7; N-terminus assumed
SMILES: CC[C@H](C)[C@H](NC(=O)[C@H](C)NC(=O)CNC(=O)[C@H](Cc1ccccc1)NC(=O)[C@H](CC(N)=O)NC(=O)[C@@H]1CCCN1C(=O)[C@H](CO)NC(=O)[C@H](CO)NC(=O)[C@H](Cc1c[nH]cn1)NC(=O)[C@H](CCCNC(=N)N)NC(=O)[C@H](CC(C)C)NC(=O)[C@H](Cc1ccccc1)NC(=O)[C@H](CC(N)=O)NC(=O)[C@H](C)NC(=O)[C@H](CC(C)C)NC(=O)[C@H](CCCNC(=N)N)NC(=O)[C@H](CCC(N)=O)NC(=O)[C@@H](NC(=O)[C@H](C)NC(=O)[C@@H]1CSSC[C@H](NC(=O)[C@@H](N)CCCCNC(=O)COCCOCCNC(=O)CC[C@H](NC(=O)CCCCCCCCCCCCCCCCCCC(=O)O)C(=O)O)C(=O)N[C@@H](CC(N)=O)C(=O)N[C@@H]([C@@H](C)O)C(=O)N[C@@H](C)C(=O)N[C@@H]([C@@H](C)O)C(=O)N1)[C@@H](C)O)C(=O)N1CCC[C@H]1C(=O)N[C@@H](CO)C(=O)N[C@@H](CO)C(=O)N[C@H](C(=O)N[C@@H](CC(N)=O)C(=O)N[C@H](C(=O)NCC(=O)N[C@@H](CO)C(=O)N[C@@H](CCC(=O)O)C(=O)N[C@H](C(=O)N[C@@H](Cc1ccc(O)cc1)C(N)=O)[C@@H](C)O)C(C)C)[C@@H](C)O
notes: also called 17R, 21P, 27P, 35E

These binders were tested against T1, human amylin receptor (human, UniProt P30988 25-474; O60896 24-148, limits assumed) (assay: SPA competition binding, displacement of 125I-rat amylin from membranes with human amylin 3(a) receptor (Assay V)).
T1 construct: whole, on cells; Calcitonin receptor plus RAMP-3 gives the amylin 3(a) receptor; membranes of Amylin 3(a)/CRE-luc cells were used; also called hAmylin-R; hAmylinR
T1 sequence (looked up) 1: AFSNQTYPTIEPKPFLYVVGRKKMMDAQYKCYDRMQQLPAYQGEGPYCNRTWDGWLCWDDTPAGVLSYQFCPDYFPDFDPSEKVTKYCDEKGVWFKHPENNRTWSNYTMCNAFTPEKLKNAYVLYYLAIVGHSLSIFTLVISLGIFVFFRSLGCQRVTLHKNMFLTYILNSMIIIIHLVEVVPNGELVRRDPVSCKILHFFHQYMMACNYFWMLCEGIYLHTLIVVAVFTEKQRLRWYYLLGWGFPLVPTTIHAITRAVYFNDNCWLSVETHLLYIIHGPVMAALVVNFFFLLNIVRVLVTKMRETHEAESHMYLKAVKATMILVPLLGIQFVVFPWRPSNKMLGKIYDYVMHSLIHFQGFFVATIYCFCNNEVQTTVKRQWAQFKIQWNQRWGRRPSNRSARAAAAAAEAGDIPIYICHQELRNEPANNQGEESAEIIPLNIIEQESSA
T1 sequence (looked up) 2: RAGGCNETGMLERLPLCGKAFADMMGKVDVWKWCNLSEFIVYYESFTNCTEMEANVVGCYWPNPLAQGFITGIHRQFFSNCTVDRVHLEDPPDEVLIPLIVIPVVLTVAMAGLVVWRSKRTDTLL
In short: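 SPA beads + BHK amylin 3(a)/CRE-luc membranes, 35 ng/μL final; buffer 50 mM Hepes pH 7.4, 1 mM CaCl2, 5 mM MgCl₂, 0.1% OA, 0.02% Tween20. 120 min, 25° C, shaken; scintillation count. IC₅₀ by one-site binding competition fit, taken as receptor affinity.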

Row | IC50 | Binder
1 | 0.172 nM | B1
2 | 0.444 nM | B2
3 | 0.636 nM | B3
4 | 0.602 nM | B4
5 | 0.249 nM | B5
6 | 0.532 nM | B6
